Assay results as given in paper PMC2567903, “Repetitive N-WASP–Binding Elements of the Enterohemorrhagic Escherichia coli Effector EspFU Synergistically Activate Actin Assembly” (PLoS Pathogens, 2008).

Molecular target: T1, His6-Flag-tagged human N-WASP (human, UniProt O00401 1-505)
T1 construct: also called His-Flag-N-WASP; N-WASP of the recombinant N-WASP/WIP complex
Experiment: SEC
Settings: partners not purified

T1 sequence (O00401 whole entry): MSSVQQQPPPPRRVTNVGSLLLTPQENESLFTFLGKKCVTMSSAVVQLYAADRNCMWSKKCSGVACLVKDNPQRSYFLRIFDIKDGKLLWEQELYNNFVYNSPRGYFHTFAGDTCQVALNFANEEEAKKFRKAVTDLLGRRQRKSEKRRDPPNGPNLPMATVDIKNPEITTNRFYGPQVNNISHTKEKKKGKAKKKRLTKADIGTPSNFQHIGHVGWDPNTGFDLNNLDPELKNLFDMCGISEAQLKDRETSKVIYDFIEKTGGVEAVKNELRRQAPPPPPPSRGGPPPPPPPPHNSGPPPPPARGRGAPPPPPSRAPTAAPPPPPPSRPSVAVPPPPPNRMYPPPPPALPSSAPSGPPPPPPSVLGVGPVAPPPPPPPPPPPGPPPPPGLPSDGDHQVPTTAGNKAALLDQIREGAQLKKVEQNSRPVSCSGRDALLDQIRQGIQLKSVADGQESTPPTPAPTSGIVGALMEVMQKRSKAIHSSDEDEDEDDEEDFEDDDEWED

B1: His6-Myc-tagged human WIP (natural protein)
chain: not shown
notes: also called His-Myc-WIP
- stoichiometry N: 1
